Experimental data from article PMC7379511.

Biological target: feline interleukin-31 (fIL-31) displayed on the yeast surface (pETconNK_fIL-31) (feline)
Assay: flow cytometry on cells

## soluble feline oncostatin M receptor extracellular domain, Fc fusion (fOSMR-ECD)
  Kd: 0.0103 µM
  percent decrease of the binding of biotinylated fIL31RA-1FNIII: 65%
  percent decrease of the binding of biotinylated fOSMR-ECD (itself): 97%
